The source of these data is patent US20180251524A1 (published 2018).

One assay has as its target Clone 3.2.20. As to the kind of experiment: yeast display flow cytometry titration; apparent. On the technique in general: A flow cytometer gives signals particle by particle.
Another assay concerns the target Clone 3.2.1. As to the kind of experiment: yeast display flow cytometry titration; estimated.
A further assay addresses Clone 3.2.22. As to the kind of experiment: yeast display flow cytometry titration; estimated.
The target of a further assay is Clone 3.2.16. As to the kind of experiment: yeast display flow cytometry titration; estimated.
The next assay concerns the target Clone 3.2.17. As to the kind of experiment: yeast display flow cytometry titration; estimated.
A further assay addresses 1DD-Fn-v4 Monomers. As to the kind of experiment: flow cytometry titration on cells; apparent.

B1: EpCAM (receptor)
chain: QEECVCENYKLAVNCFVNNNRQCQCTSVGAQNTVICSKLAAKCLVMKAEMNGSKLGRRAKPEGALQNNDGLYDPDCDESGLFKAKQCNGTSMCWCVNTAGVRRTDKDTEITCSERVRTYWIIIELKHKAREKPYDSKSLRTALQKEITTRYQLDPKFITSILYENNVITIDLVQNSSQKTQNDVDIADVAYYFEKDVKGESLFHSKKMDLTVNGEQLDLDPGQTLIYYVDEKAPEFSMQGLK
modifications: biotinylated (site not stated)
On to B1, for which the Kd is 140 nM with Clone 3.2.20; 190 nM with Clone 3.2.1; 190 nM in the assay with Clone 3.2.22; 150 nM in the assay with Clone 3.2.16; 130 nM with Clone 3.2.17.

B2: MCF-7 Cells (receptor)
chain: QEECVCENYKLAVNCFVNNNRQCQCTSVGAQNTVICSKLAAKCLVMKAEMNGSKLGRRAKPEGALQNNDGLYDPDCDESGLFKAKQCNGTSMCWCVNTAGVRRTDKDTEITCSERVRTYWIIIELKHKAREKPYDSKSLRTALQKEITTRYQLDPKFITSILYENNVITIDLVQNSSQKTQNDVDIADVAYYFEKDVKGESLFHSKKMDLTVNGEQLDLDPGQTLIYYVDEKAPEFSMQGLKAGVIAVIVVVVIAVVAGIVVLVISRKKRMAKYEKAEIKEMGEMHRELNA
In the case of B2, the Kd in the assay with 1DD-Fn-v4 Monomers came out at 34.8 nM.
